# From patent US20160168225A1 (Sanofi, published 2016)
# Square brackets hold non-standard residues; d marks the D form. Ends that are not written are not given here. Aib = CC(C)(N)C(=O)O
# Molecular target: human GLP-1 receptor (human, UniProt P43220 24-463)
# Assay: cell-based or functional assay
binder,measurement,value
H[Aib]QGTFTSDLSKQLDEQRA[(S)MeLys]DFIEWLIAGGPSSGAPPPS-NH2 [SEQ ID NO: 14],"EC50 hGLP-1R (cAMP formation, HTRF, HEK-293 cells)",1 pM
